{"source": "paper PMC7592216", "system": "eIF4E (eukaryotic translation initiation factor 4E, cap-binding protein) (wheat)", "assay": "EMSA", "settings": "10 mM HEPES pH 7.5, 20 mM KCl, 1 mM DTT, 3 mM MgCl2, 0.1 ug/ul yeast tRNA, 1 ug/ul BSA, 1 U/ul RNaseOUT, 20 mM Tris-HCl/10% glycerol; 25 min on ice; 10 fmol …", "note": "pKd: −log10 of the molar value.", "data": [{"substance": "MTE (MCMV 3' CITE), uncapped", "values": [{"measurement": "pKd", "result": 7.10}]}]}
